According to PMC4982076, “lin28 proteins promote expression of 17∼92 family miRNAs during amphibian development”:

T1: Xrt-lin28a (Xenopus tropicalis, UniProt Q5EB47 34-177)
T1 sequence: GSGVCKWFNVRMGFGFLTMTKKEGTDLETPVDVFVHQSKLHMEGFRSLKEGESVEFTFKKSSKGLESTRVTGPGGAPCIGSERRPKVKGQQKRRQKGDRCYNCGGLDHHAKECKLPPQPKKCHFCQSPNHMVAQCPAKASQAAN


Legend:
Xrt-lin28a [1] = target: T1, Xrt-lin28a; assay: EMSA; settings: Bmax 1.017; n=3; 60 mM KCl, 10 mM HEPES pH 7.6, 3 mM MgCl2, 5% glycerol, 1 mM DTT, 5 ug/ul heparin, 150 ng yeast total RNA; 30 min room temperature; 10% native PAGE
Xrt-lin28a [2] = target: T1, Xrt-lin28a; assay: EMSA; Bmax 0.962; n=3; 60 mM KCl, 10 mM HEPES pH 7.6, 3 mM MgCl2, 5% glycerol, 1 mM DTT, 5 ug/ul heparin, 150 ng yeast total RNA; 30 min room temperature; 10% native PAGE; settings: protein: recombinant

Molecule	Kd (Xrt-lin28a [1]) [nM]	Kd (Xrt-lin28a [2]) [nM]
L-let-7g	314	–
UGCAAUUUUAUUUAGUUUGGUAGGAGAAAAAUUGC (structured_RNA) [L-mir-363]	–	448
